Article doi:10.1101/826578

Target: Timeless (optimised construct);Tipin (human;human, UniProt Q9UNS1;Q9BVW5 1-238+=GSTGST+331-1208;1-301, internal_change|)
Test: EMSA

Binder | binding result
dsG4 (dsGQ) (structured_DNA) DNA 1: ACGAGAGCTAGCACATTTTGAGGGTGGGTAGGGTGGGTAATTTTCACGTAGAACCTGT DNA 2: ACAGGTTCTACGTGATTTTTTTTTTTTTTTTTTTTTTTTTTTTTGTGCTAGCTCTCGT | binds
dsHP (structured_DNA) DNA 1: ACGAGAGCTAGCACATTTTGAGGCTGCGTTTCGCAGCCTCAATTTCACGTAGAACCTGT DNA 2: ACAGGTTCTACGTGATTTTTTTTTTTTTTTTTTTTTTTTTTTTTGTGCTAGCTCTCGT | no binding
